Reference: patent publication US20220316002

Target: thiolated streptavidin (ProteinMods) (UniProt P22629)
Chain of UniProt P22629 (P22629 whole entry, looked up): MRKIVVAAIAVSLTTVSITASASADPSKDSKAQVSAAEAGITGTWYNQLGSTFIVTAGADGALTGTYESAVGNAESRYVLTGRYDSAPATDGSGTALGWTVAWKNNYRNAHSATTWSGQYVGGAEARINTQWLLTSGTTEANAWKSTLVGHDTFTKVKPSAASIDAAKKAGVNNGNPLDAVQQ

Gen II Φ29 DNA polymerase (D12A/D66A, biotinylated Avitag at the N terminus and second Avitag between E279 and D280)
highest peak of the single-molecule conductance distribution (STM, 4.5 nm gap): The 3 nS peak observed in FIG. 14B is now absent
